Assay results published in patent US20230265183A1 (MABWELL SHANGHAI BIOSCIENCE, published 2023).
Where a chain is given by its changes, count along the chain named.

T1: human Nectin-4 (human, UniProt Q96NY8 32-510)
T1 construct: whole, on cells; Cell-surface target of the FACS, endocytosis and proliferation assays (CHO-huNectin4 S8 cells, BT474 cells); the assay field says which cells; also called huNectin4; PVRL4
T1 sequence (looked up): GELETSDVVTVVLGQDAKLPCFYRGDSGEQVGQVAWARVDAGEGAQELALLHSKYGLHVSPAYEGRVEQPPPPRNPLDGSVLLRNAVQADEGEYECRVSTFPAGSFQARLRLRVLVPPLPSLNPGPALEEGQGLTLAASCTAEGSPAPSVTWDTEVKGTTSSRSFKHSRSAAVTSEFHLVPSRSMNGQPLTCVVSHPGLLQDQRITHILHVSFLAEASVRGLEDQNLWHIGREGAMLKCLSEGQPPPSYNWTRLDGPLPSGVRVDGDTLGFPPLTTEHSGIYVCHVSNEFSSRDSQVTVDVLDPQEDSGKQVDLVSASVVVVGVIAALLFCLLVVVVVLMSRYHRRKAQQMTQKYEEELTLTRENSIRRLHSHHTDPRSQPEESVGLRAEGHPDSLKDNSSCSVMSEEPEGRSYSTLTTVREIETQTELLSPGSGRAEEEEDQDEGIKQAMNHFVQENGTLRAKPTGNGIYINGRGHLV

T2: Cyno Nectin4 (Cyno, UniProt Q96NY8 32-510 (human entry))
T2 construct: Expressed on HEK293 cells (HEK-cynoNectin4)
T2 chain: T1 sequence (looked up) with V39A, I230V, A437T

T3: human Nectin-4(C-6His), Novoprotein Cat# CJ19 (human, UniProt Q96NY8 32-349)
T3 construct: Bought protein; also called recombinant human Nectin4 protein; antigen Nectin-4
T3 sequence: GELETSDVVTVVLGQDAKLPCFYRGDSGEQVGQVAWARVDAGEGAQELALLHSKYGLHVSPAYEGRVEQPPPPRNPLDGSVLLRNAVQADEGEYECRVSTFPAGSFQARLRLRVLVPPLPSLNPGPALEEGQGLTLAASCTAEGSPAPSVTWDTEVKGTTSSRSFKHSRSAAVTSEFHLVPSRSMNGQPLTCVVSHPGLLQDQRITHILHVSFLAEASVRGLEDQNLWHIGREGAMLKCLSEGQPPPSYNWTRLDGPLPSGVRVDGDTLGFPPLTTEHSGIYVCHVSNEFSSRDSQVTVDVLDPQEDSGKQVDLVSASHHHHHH

T4: human Nectin-2(C-6His), Novoprotein Cat# C440 (human, UniProt Q92692 32-360, limits assumed)
T4 sequence: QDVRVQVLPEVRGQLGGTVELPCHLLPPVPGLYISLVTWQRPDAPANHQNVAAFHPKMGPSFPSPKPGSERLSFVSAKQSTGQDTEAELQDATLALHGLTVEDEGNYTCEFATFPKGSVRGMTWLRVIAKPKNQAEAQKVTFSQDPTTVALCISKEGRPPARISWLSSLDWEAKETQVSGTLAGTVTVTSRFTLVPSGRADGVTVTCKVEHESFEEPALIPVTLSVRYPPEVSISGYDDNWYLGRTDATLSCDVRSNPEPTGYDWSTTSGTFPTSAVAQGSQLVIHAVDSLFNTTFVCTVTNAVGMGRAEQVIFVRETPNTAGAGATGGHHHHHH

T5: His-tagged human NECTIN4 (human, UniProt Q96NY8 32-349)
T5 construct: Antigen of the BIAcore assay; also called antigen; recombinant NECTIN4 protein; not shown: His tag
T5 sequence: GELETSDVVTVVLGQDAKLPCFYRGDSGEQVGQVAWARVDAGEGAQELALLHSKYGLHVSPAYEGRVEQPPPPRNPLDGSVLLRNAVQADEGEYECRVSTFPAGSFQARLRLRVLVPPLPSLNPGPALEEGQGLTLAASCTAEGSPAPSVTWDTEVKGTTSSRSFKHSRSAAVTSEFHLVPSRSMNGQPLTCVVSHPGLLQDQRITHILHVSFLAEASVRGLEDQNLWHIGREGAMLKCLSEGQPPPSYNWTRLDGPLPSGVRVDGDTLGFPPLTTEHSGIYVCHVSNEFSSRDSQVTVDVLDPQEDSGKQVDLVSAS

B1: Enfortumab (antibody, human IgG1, kappa, V domains shown)
VH: EVQLVESGGGLVQPGGSLRLSCAASGFTFSSYNMNWVRQAPGKGLEWVSYISSSSSTIYYADSVKGRFTISRDNAKNSLSLQMNSLRDEDTAVYYCARAYYYGMDVWGQGTTVTVSS
VL: DIQMTQSPSSVSASVGDRVTITCRASQGISGWLAWYQQKPGKAPKFLIYAASTLQSGVPSRFSGSGSGTDFTLTISSLQPEDFATYYCQQANSFPPTFGGGTKVEIKR
notes: also called control antibody Enfortumab
B2: 42D20 hz10 (antibody, V domains shown)
VH: QVQLQESGPGLVKPSETLSLTCTVSGFSLIDYGVSWIRQPPGKGLEWIGVIWGDGKIYYNSVLKSRVTISKDNSKSQVSLKLSSVTAADTAVYYCAKQGGLLFYAMDYWGQGTLVTVSS
VL: DIVMTQSPDSLAVSLGERATINCKSSQSLLNSYSQKNYLAWYQQKPGQPPKLLIYFASTRESGVPDRFSGSGSGTDFTLTISSLQAEDVAVYYCQQHYNTPFTFGAGTKLELKR
notes: Humanized

How the values were obtained:
[1] = target: T1, human Nectin-4; assay: FACS on BT474 cells
Description: The solutions of different concentrations were added to 384-well plates, 10 µl per well.
BT474 cells (breast cancer cells) expressing Nectin-4 on the cell surface were collected by centrifugation at 100 g at room temperature for 5 minutes, and then the cells were washed with PBS containing 0.5% BSA once and were centrifuged at 100 g at room temperature for 5 minutes. […] After incubation at 4° C. for 1 hour, fluorescently labeled goat anti-human IgG secondary antibody was added. After continued incubation at 4° C. for 1 hour, mean fluorescence readings of the cell populations were analyzed by a flow cytometer.

[2] = target: T1, human Nectin-4; assay: cell-based or functional assay
[3] = target: T2, Cyno Nectin4; assay: FACS on HEK-cynoNectin4 cells
[4] = target: T1, human Nectin-4; assay: FACS on CHO-huNectin4 S8 cells
[5] = target: T3, human Nectin-4(C-6His), Novoprotein …; assay: ELISA, plate coated with 1 µg/ml human Nectin-4(C-6His), HRP-labelled secondary antibody, absorbance at 450 nm
Description: (§1) Plates were coated with 1 µg/ml of the antigens and incubated at 4° C. overnight; next, antibodies serially diluted were added into the plates. Finally, the HRP-labeled secondary antibody was added, and absorbance at 450 nm was detected.

[6] = target: T4, human Nectin-2(C-6His), Novoprotein …; assay: ELISA, plate coated with 1 µg/ml human Nectin-2(C-6His), absorbance at 450 nm. The text names only a goat anti-rabbit HRP secondary antibody
Description: as §1

[7] = target: T5, His-tagged human NECTIN4; assay: ELISA, antibody without cyno serum, plate coated with 0.2 µg/ml antigen, HRP goat anti-human IgG, OD450. The sheet does not say which of the two plates of Example 13 is drawn

| Binder | EC50 [1] [µg/mL] | EC50 (ng/ml), inhibition of proliferation of BT474 cells [2] [ng/mL] | Percentage of cell killing at the highest concentration [2] [%] | EC50 [3] [µg/mL] | EC50 [4] [µg/mL] | EC50 (read off the curve) [5] [µg/mL] | binding result [6] | EC50 (read off the curve) [7] [µg/mL] |
| --- | --- | --- | --- | --- | --- | --- | --- | --- |
| B1 | 98.8 | 3.37 | 43.3 | 0.948 to 2.07 | 0.513 | ~0.1 | no binding (tested: 10 µg/ml) | ~0.1 |
| B2 | – | – | – | 2.42 to 4.97 | 0.801 | ~0.09 | no binding (tested: 10 µg/ml) | – |
